According to the supplement of paper PMC9170038:

Tested on: MS2 coat protein
Test: apparent KD of MS2 coat protein; designed switch direction (-1 OFF switch, 1 ON switch): 1; higher = weaker reporter binding
In short: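 Three titration conditions were used: no input, 200 uM small-molecule ligand, and an oligonucleotide input. In each, SNAP-549-labelled MS2 coat protein was raised from 0.7 or 1.5 nM, doubling, to 3 µM over designed RNA switches transcribed on Illumina chips by stalled E. coli RNA polymerase. Curve fits of normalised cluster fluorescence gave values whose per-design median over clusters is the apparent KD.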

[1] = input ligand: microRNA oligo, concentration not stated
[2] = Eterna round: R95, input ligand: FMN 200 uM
[3] = Eterna round: R95, input ligand: microRNA oligo, concentration not stated
[4] = Eterna round: R95, input ligand: none

Sequence | apparent KD of MS2 coat protein (input ligand: FMN 200 uM) | apparent KD of MS2 coat protein [1] | apparent KD of MS2 coat protein (input ligand: none) | apparent KD of MS2 coat protein [2] | apparent KD of MS2 coat protein [3] | apparent KD of MS2 coat protein [4]
CCGCUCUAUGGAGGAUAUGGGCCUGCCCGGGAUAACGGGCCUAAUACAUGAGGAUCACCCAUGUCCCAGAAGGCCGCUAGAGCC [Errexexe] (Eterna round: R96, puzzle: Same State NG 2) | 120 nM | 348 nM | 471 nM | – | – | –
CCGGCAAGUAUAGGAUAUCCCGCUACAGAAGCGGGAGAAGGGUGCCAAACAUGAGGAUCACCCAUGUACACCGGAAAUAUAUAA [Soorve] (Eterna round: R96, puzzle: Same State NG 1) | 36.4 nM | 31.2 nM | 34.6 nM | – | – | –
CCGGGUAAUGGAGGAUAUGGAGCCUUAUUGGCUCCAGAAGGUCAAUAACAUGAGGAUCACCCAUGUCCGGCGGUCAAUAGACCG [Eli NG1ss - 68] (Eterna round: R96, puzzle: Same State NG 1) | 87.5 nM | 202 nM | 775 nM | – | – | –
CCGGUUAAUGGAGGAUAUGGAGCCUUAUUGGCUCCAGAAGGCUAACAUGAGGAUCACCCAUGUUUACCGGCGGUCAAUAGACCG [Eli NG1ss - 62] (Eterna round: R96, puzzle: Same State NG 1) | 11 nM | 11 nM | 18.8 nM | – | – | –
CCGGUUUAUGGAGGAUAUGGAGCCUUAUUGGCUCCAGAAGGCUAAUAACAUGAGGAUCACCCAUGUCGGCGGUCUAAUGACCGA [Eli NG1ss - 56] (Eterna round: R96, puzzle: Same State NG 1) | – | 21.8 nM | – | – | – | –
CCGGUUUAUGGAGGAUAUGGAGCCUUAUUGGCUCCAGAAGGUCAAUAACAUGAGGAUCACCCAUGUCCGGCGGUCAAUAGACCG [Eli NG1ss - 69] (Eterna round: R96, puzzle: Same State NG 1) | 120 nM | 146 nM | 349 nM | – | – | –
CCUUAGUACAAUUUAGAUCUACAUGAGGAUCACCCAUGUACUGAGGAUAUCAGCUCGAAUAGAGCUGAGAAGGCAGAAGUACUU [SSNG3/7-A1] (Eterna round: R96, puzzle: Same State NG 3) | 60.3 nM | 154 nM | 130 nM | – | – | –
CCUUGUAGCGGAGGAUAUGGGCCUCACUCAGUCAAAGAGUGAGAAACAUGAGGAUCACCCAUGUCCCAGAAGGCCGCUGCAUGG [Ridizaer] (Eterna round: R96, puzzle: Same State NG 2) | 12.1 nM | 13.8 nM | 19.1 nM | – | – | –
CGACACACGGCAGGAUAUGCUUAGCAAAGCUAAGCAGAAGGGCCUCAUGUCGUGGAAACCUGACAUGAGGAUCACCCAUGUCGG [Omei SS(NG)1 Cv3] (Eterna round: R96, puzzle: Same State NG 1) | 23.8 nM | 11.6 nM | 37.6 nM | – | – | –
CGACACACGGCAGGAUAUGCUUAGCAAAGCUAAGCAGAAGGGCCUCAUGUCGUGGAAACGUGACAUGAGGAUCACCCAUGUCGC [Omei SS(NG)1 C] (Eterna round: R96, puzzle: Same State NG 1) | 31 nM | 14.6 nM | 19.9 nM | – | – | –
CGAGAGUGCGUAGGAUAUCCGAAAGGAAGUGUAGGAGAAGGGCGGAACGCUCAUCGAAAACAUGAGGAUCACCCAUGUACAAAU [PowerStrip SSNG 1.17] (Eterna round: R96, puzzle: Same State NG 1) | 24.7 nM | 62.7 nM | 43.9 nM | – | – | –
CGAGCCGGCACUGAGGAUAUUCAUAUUUAAACAUGAGGAUCACCCAUGUAGGCCAGAAGGCCUUGGGAGAAGGCAGGUCGGCUCC [salish99_ss2_r3_080] (Eterna round: R96, puzzle: Same State 2) | 22.3 nM | 220 nM | 312 nM | – | – | –
CGAGCCGGCACUGAGGAUAUUCAUAUUUAAACAUGAGGAUCACCCAUGUAGGCCAGAAGGCCUUGGGAGAAGGCAGGUCGGCUCC [salish99_ss2_r3_080] (puzzle: Same State 2) | – | – | – | 22.6 nM | 279 nM | 480 nM
CGAUGUGAGUCAGGAUAUGGGUUAUCACUCCACAUGAGGAUCACCCAUGUAAAGAGGCCAAGGAGCCAGAAGGGACAUACAUCU [Zaorso] (Eterna round: R96, puzzle: Same State NG 2) | 1520 nM | 14.2 nM | 50.8 nM | – | – | –
CGGCGCUGUCGAGAGGAUAUGCGGUGAUGGACAUGAGGAUCACCCAUGUUAGCGAUAGCAUCACGGUAGAAGGCUCUACGGCUGC [Soteed Omei mod 19] (puzzle: Same State 2) | – | – | – | – | 9.83 nM | –
CGGCGCUGUCGAGAGGAUAUGCGGUGAUGGACAUGAGGAUCACCCAUGUUAGCGAUAGCAUUACGGUAGAAGGCUCUACAGUUGC [Soteed Omei mod 8] (puzzle: Same State 2) | – | – | – | 19.2 nM | 74.9 nM | 66.9 nM

Sequence | apparent KD of MS2 coat protein (input ligand: FMN 200 uM) | apparent KD of MS2 coat protein [1] | apparent KD of MS2 coat protein (input ligand: none) | apparent KD of MS2 coat protein [2] | apparent KD of MS2 coat protein [3] | apparent KD of MS2 coat protein [4]
CGUAGGAUAUGCAGAGGAUCACCCUGUAGAAGGACGAUUACACAGGAUAUGCAGAGGAUCACCCUGUAGAAGGGUGACUAAUCU [pwkr ssNG3 DX 2xF5 +2xFMN.3] (Eterna round: R96, puzzle: Same State NG 3) | 25.8 nM | 34.4 nM | 55.7 nM | – | – | –
CGUCCAGCCUGAGCUGGACAAAAGCAUGUACAUGAGGAUCACCCAUGUUCAUGUACAAGCUUUUUGCUCGUCUUAGA [salish99_208a_r3_072] (puzzle: Sensor for hsa-mir-208a) | – | – | – | 477 nM | 15.3 nM | 432 nM
CGUCCAGCCUGAGCUGGACAAAAGCAUGUACAUGAGGAUCACCCAUGUUCAUGUACAAGCUUUUUGCUCGUCUUAGU [salish99_208a_r3_073] (puzzle: Sensor for hsa-mir-208a) | – | – | – | 557 nM | 14.5 nM | 646 nM
CGUCCGGCCUGAGCUGGACGGAUGCAUGUACAUGAGGAUCACCCAUGUUCAUGUGCAGGCUUUUUGCUCGUCUUGUG [salish99_mir208a_modof_jandersonlee_002] (puzzle: Sensor for hsa-mir-208a) | – | – | – | 20.1 nM | 9.62 nM | 18.1 nM
CGUCCGGCCUGUGCUGGCCGGAAGCAUGUACAUGAGGAUCACCCAUGUUCAUGUGCUGGCUUUUUGCUCGUCUUGUG [salish99_mir208a_011] (puzzle: Sensor for hsa-mir-208a) | – | – | – | 13.9 nM | 11.1 nM | 14 nM
CGUCCGGCCUGUGCUGGCCGGUCGCUUGUACAUGAGGAUCACCCAUGUUCUUGUGCUGGCUUUUUGCUCGUCUUGUG [salish99_mir208a_020] (puzzle: Sensor for hsa-mir-208a) | – | – | – | 27.1 nM | 17.7 nM | 31 nM
CGUCCGGCCUGUGCUGGCCGGUGGCUUGUACAUGAGGAUCACCCAUGUUCUUGUGCUGGCUUUUUGCUCGUCGUGUG [salish99_mir208a_r3_023] (puzzle: Sensor for hsa-mir-208a) | – | – | – | 32.6 nM | 19.8 nM | 37.9 nM
CGUCGCUGUCGAGAGGAUAUGCGGUGAUGGACAUGAGGAUCACCCAUGUUAGCGAUAGUAUCACGGUAGAAGGCUCUUACGACUG [Soteed Omei mod 26] (puzzle: Same State 2) | – | – | – | – | 26.7 nM | –
CGUCGUUUGAUAGGAUAUCGCUAUACAUGAGGAUCACCCAUGUUUACCACGCUGGUUUUUCAUACCGAGAAGGAUUCUGAUGUU [salish99_SSNG02_r04_016] (Eterna round: R96, puzzle: Same State NG 2) | 49.8 nM | 42.4 nM | 44.1 nM | – | – | –
CGUCGUUUGAUAGGAUAUCGCUUUACAUGAGGAUCACCCAUGUUUACCUCGCUGGUUUUUCUUUCCGAGAAGGAUUCUGAUGUU [salish99_SSNG02_r04_030] (Eterna round: R96, puzzle: Same State NG 2) | 43.4 nM | 31.6 nM | 40.4 nM | – | – | –
CGUGAACAUGAGGAUCACCCAUGUGAAAAACGUAGAGGAUAUGUCACAUGAGUGUAAAAGACAGAAGGCUAUCGUG [Mod 2 of Round 1 starryjess' Mod pf Nando] (Eterna round: R96, puzzle: Same State 1) | 35.4 nM | 172 nM | 243 nM | – | – | –
CGUUCACAUGAGGAUCACCCAUGUCAGAUUUGGUCAGGAUAUGGUCGGCUUCCGCUAUUGCCAGAAGGGACUGUUG [JR_SS001_Sub705] (Eterna round: R96, puzzle: Same State 1) | 24.3 nM | 28.8 nM | 35.2 nM | – | – | –
CUACAGGCCAGAGGAUAUGGGAAAGGAAGUGUACCAGAAGGUUGGCCUCCUGAGUACAUGAGGAUCACCCAUGUAGAAAGGCGA [PowerStrip SSNG 1.6] (Eterna round: R96, puzzle: Same State NG 1) | 143 nM | 41.6 nM | 79.9 nM | – | – | –
CUACGCGCCGCAGGAUAUGCCGACCCGUGUUGAGCAGAAGGGCGAAACAUGAGGAUCACCCAUGUUGAAAGAGCGCAAAAUUAA [Erteerte] (Eterna round: R96, puzzle: Same State NG 1) | 23.5 nM | 16.4 nM | 30.1 nM | – | – | –
CUCAAAACAAGUUGCAGUGUUCGUCUUUAACAUGAGGAUCACCCAUGUAAUAACCCAGUGGAAGCGCUCGGGCCACC [Ineson] (puzzle: Sensor for hsa-mir-208a) | – | – | – | 30.2 nM | – | 28.5 nM
